Publication PMC3219604

Test system: OrfAB-GFP GMF101 V179L ((insertion sequence IS2))
Test: EMSA
Details: panel (50- or 87-mer) not stated in material; 20 mM Tris-Cl pH 8.0, 1 mM EDTA, 5 ug/mL calf thymus DNA, 10 nM DNA, 0.11-0.13 uM protein, 30 min at 20 C; gels at 4 C

## GGATCCTTAAGTGATAACAGATGTCTGGAAATATAGGGGCAAATCCAGCG (double strand) [IRR 50-mer]
  binding signal (binding score (0-5)): 3
